No end group written: not given here. TMR = tetramethyl rhodamine dye
Legend:
Details in all cases: both partners purified
Rb^P I679F = target: T1, Rb^P I679F (human, UniProt P06400 380-788, I679F); test: fluorescence polarisation; 25 °C; unlabeled Rb^P titrated against 1.5 nM TMR-E2F1^TD or 7.5 nM TMR-E7^LxCxE; 25 mM Tris pH 8.0, 200 mM NaCl, 1 mM DTT, 0.1% Tween-20; 2 min incubation; quadratic fit; apparent Kd for the variants, Kd for WT
T1 construct: also called variant 57
T1 sequence (looked up): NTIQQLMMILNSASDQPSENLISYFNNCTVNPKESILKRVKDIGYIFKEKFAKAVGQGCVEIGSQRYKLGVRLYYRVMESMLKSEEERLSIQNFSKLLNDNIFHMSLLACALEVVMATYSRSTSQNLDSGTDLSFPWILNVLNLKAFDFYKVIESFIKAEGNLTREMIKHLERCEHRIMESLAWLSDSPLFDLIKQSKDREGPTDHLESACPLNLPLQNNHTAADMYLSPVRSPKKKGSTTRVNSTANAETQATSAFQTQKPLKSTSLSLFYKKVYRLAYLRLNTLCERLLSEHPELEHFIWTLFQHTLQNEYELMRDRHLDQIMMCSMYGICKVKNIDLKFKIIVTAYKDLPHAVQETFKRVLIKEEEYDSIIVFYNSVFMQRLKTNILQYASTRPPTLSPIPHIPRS

Rb^P R656W = target: T2, Rb^P R656W (human, UniProt P06400 380-788, R656W); test: fluorescence polarisation; 37 °C, after the 25 °C reading ramped over 7 min to 37 °C and 2 min incubation; unlabeled Rb^P against 1.5 nM TMR-E2F1^TD or 7.5 nM TMR-E7^LxCxE; 25 mM Tris pH 8.0, 200 mM NaCl, 1 mM DTT, 0.1% Tween-20; apparent Kd
T2 construct: also called variant 49
T2 sequence (looked up): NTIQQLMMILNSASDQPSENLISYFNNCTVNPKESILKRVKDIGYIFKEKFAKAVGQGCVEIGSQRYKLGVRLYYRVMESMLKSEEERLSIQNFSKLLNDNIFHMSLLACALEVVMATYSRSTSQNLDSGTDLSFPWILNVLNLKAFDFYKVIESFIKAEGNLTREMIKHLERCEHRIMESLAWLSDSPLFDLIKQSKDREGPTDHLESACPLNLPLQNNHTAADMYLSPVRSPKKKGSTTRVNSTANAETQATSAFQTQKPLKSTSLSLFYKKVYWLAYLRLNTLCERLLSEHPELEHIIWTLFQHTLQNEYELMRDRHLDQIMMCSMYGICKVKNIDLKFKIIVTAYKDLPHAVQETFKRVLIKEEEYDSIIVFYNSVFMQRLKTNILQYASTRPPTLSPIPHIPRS

Rb^P L572I = target: T3, Rb^P L572I (human, UniProt P06400 380-788, L572I); test: as above
T3 construct: also called variant 31
T3 sequence (looked up): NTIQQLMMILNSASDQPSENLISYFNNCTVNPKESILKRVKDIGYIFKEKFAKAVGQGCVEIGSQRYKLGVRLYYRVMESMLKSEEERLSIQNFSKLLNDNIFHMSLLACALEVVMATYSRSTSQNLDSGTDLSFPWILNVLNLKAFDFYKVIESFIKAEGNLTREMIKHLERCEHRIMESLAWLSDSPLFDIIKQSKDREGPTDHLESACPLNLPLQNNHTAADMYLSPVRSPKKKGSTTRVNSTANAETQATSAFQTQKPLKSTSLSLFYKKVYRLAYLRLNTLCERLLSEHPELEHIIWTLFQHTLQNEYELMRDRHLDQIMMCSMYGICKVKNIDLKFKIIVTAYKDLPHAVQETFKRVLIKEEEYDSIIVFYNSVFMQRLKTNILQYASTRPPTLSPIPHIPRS

Rb^P T664A = target: T4, Rb^P T664A (human, UniProt P06400 380-788, T664A); test: as above
T4 construct: also called variant 50
T4 sequence (looked up): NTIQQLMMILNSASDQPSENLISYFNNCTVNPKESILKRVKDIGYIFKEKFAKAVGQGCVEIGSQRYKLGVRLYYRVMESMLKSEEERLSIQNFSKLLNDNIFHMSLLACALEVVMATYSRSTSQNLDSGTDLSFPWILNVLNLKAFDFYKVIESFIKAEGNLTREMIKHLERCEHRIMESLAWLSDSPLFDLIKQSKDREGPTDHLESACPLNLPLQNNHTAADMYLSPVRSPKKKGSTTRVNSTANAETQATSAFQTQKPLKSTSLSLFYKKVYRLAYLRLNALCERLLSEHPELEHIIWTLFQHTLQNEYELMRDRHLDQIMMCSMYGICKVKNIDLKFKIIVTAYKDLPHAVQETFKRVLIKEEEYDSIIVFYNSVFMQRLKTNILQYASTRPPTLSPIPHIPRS

Rb^P H686Y = target: T5, Rb^P H686Y (human, UniProt P06400 380-788, H686Y); test: as above
T5 construct: also called variant 58
T5 sequence (looked up): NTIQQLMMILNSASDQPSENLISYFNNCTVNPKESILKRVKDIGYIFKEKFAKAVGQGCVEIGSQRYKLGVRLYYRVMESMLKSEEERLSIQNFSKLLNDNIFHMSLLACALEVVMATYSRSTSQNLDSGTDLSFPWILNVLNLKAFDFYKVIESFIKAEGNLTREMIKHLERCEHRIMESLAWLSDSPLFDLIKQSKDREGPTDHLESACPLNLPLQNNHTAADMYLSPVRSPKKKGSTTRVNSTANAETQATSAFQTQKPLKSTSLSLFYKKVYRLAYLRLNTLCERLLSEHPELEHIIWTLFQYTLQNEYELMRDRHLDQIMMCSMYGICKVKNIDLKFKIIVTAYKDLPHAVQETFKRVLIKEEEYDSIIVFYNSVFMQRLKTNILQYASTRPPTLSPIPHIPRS

B1: TMR-E2F1^TD, peptide of the E2F1 transactivation domain (peptide)
peptide: {TMR}-GEGIRDLFDCDFGDLTPLD
notes: also called E2F^TD; source: synthetic peptide, bought: GenScript
In the case of B1, the Kd (Rb^P I679F) is reported as 17 nM, the Kd (Rb^P R656W) is reported as 77 nM and the Kd (Rb^P L572I) is reported as 87 nM. For the same binder, the Kd (Rb^P T664A) was 24 nM and the Kd (Rb^P H686Y) was 35 nM.

B2: TMR-E7^LxCxE, LxCxE peptide of the E7 oncoprotein from HPV (peptide)
peptide: DLYCYEQLN
modifications: also: TMR label, position not given here
notes: source: synthetic peptide, bought: GenScript
B2 was tested, and the Kd (Rb^P I679F) was 11 nM, the Kd (Rb^P R656W) was 19 nM and the Kd (Rb^P L572I) was 15 nM. The Kd (Rb^P T664A) was 16 nM and the Kd (Rb^P H686Y) was 14 nM.
